Results: IntAct's records for PubMed 22184064

Biological target: CCNY, Q8ND76-1
Sequence (Q8ND76 whole entry): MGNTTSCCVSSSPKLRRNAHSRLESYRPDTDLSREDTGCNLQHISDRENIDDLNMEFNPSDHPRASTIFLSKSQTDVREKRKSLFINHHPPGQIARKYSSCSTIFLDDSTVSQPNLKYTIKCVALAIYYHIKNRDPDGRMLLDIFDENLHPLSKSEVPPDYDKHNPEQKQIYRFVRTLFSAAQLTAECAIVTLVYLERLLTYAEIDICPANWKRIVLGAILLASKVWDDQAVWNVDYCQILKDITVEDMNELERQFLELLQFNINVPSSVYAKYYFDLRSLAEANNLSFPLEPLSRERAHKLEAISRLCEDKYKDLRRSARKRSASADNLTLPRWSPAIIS

Cyclin-dependent kinase 16 (Homo sapiens), Q00536 K216E, sequence (Q00536 whole entry K216E): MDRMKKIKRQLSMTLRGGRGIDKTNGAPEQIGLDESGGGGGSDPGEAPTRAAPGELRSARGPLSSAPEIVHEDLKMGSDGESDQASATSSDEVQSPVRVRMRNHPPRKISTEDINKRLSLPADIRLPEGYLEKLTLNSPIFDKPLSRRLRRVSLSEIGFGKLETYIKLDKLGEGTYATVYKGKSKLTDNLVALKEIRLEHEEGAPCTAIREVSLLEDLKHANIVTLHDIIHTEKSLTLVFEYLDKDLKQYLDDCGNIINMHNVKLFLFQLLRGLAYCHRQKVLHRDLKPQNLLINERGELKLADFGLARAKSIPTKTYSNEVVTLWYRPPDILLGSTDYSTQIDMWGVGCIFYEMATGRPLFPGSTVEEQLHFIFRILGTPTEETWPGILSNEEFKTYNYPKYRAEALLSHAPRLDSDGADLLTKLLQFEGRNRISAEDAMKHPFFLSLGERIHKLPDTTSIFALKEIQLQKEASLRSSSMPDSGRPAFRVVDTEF
Cyclin-dependent kinase 16 (Homo sapiens), Q00536 I209T, sequence (Q00536 whole entry I209T): as the sequence (Q00536 whole entry K216E) above, with I209T, E216K counted along it
Cyclin-dependent kinase 16 (Homo sapiens), Q00536 S153A, sequence (Q00536 whole entry S153A): as the sequence (Q00536 whole entry K216E) above, with S153A, E216K counted along it
Cyclin-dependent kinase 16 (Homo sapiens), Q00536 S119A, sequence (Q00536 whole entry S119A): as the sequence (Q00536 whole entry K216E) above, with S119A, E216K counted along it
Cyclin-dependent kinase 16 (Homo sapiens), Q00536 G158D, sequence (Q00536 whole entry G158D): as the sequence (Q00536 whole entry K216E) above, with G158D, E216K counted along it
Cyclin-dependent kinase 16 (Homo sapiens), Q00536 S153D, sequence (Q00536 whole entry S153D): as the sequence (Q00536 whole entry K216E) above, with S153D, E216K counted along it

| effect of a mutation on the interaction | Substance |
| --- | --- |
| disrupting interaction strength | Cyclin-dependent kinase 16 (Homo sapiens), Q00536 G158D |
| disrupting interaction strength | Cyclin-dependent kinase 16 (Homo sapiens), Q00536 I209T |
| disrupting interaction strength | Cyclin-dependent kinase 16 (Homo sapiens), Q00536 K216E |
| disrupting interaction strength | Cyclin-dependent kinase 16 (Homo sapiens), Q00536 S119A |
| increasing interaction strength | Cyclin-dependent kinase 16 (Homo sapiens), Q00536 S153A |
| disrupting interaction strength | Cyclin-dependent kinase 16 (Homo sapiens), Q00536 S153D |
